Data as given in US12385055B2, “Compositions and methods for production of salidroside, icariside D2, and precursors of salidroside and icariside D2” (Whitehead Institute for Biomedical Research, priority 2017, dated 2025).

B1: RrUGT17: R. rosea UGT with both T8GT and T4GT activities (protein, listed as Rhodiola rosea)
chain: MGSLPSTKSHAVLVPYPAQGHINPFMQLAKLLHSKGFHITFVNNDHNHRRLLRTKGHDFVQGLEGLRFEAVPDGLPPSDRDATQDVPKLTESIYNKSMNQPFSDLLQRLNSTPGSPPVTCVISDVAMFFAWDVADELGIPNVQFWTASACGLLGYLQYDELLRRAIVPFKDENFMTDGSLEALIDWIPGMPNMRLKDLPSFMRTTSPDDVLFNYLRTITTKALKSSALLLNTFDDFEHEVVEEMKKMQPNIFLGGPLNMLLRHTSKTEITSLTTSLWKEDTHCLEWLDKQEPESVVYINYGSVTIMSDHHLNEFAWGLANSKHPFLWIVRPDVVRGESGTLPKEFYDEIKDRGLITSWCPQPEVLKHPSVGVYLTHCGWNSITESVAGGVPLMCWPFFAEQQTNSRFACTVWGTGVEVNADVKREELAEQVMEMLEGKRGQELRKNAKEWRRKAEEATDIGGSAYADFDRFMEKVVQFSV
B2: RrUGT32: R. rosea UGT with regio-specific T8GT activity (protein, listed as Rhodiola rosea)
chain: MGSLGKKIQQKPHAICTPYPAQGHINPMLKLAKLLHHSGFYITFVHTTYNYNRLLKTHGSDSLSGLPDFQFETIPDGLPPSDAADVTQDIPALCKSTTETCLVPFKELLAKLHNKSMASPEEVPPVTCIVSDGCMSFTVDAAEEAGVPNVLLWTTSACGFLGYANYPKLIDRGIIPLKDESYFTNGYLDKTVDGIPGMKGIRLRDFPNFVCTTNPDEFMVKYAIQEITRAARADAVILNTFDALEHDFLDGLSNIYPKVLPIGPLQLPLNQIPESSPLHSICSSLWKDEPQCITWLNSQKPKSVVYVNYGSITVMTPQQMVEFAWGLANTKYPFLWIIRPDLVAGETAVLPPDFLEVTKGRSCLASWCPQEQVLSHTSIGGFLTHCGWNSMLESVVEGVPMVCWPFFAEQQTNCWAARTKWGIGMEIDNDVKRDKVQKMVTELMEGEKGKEMKRKGGEWKKLGAEAAGPNGSATLNFSRLINDVLLSKKKL
B3: RrUGT7: R. rosea UGT with regio-specific T4GT activity (protein, listed as Rhodiola rosea)
chain: MAENTHAHAIVVPFPVQGHIKPSLNLALKLASQGFTITFVTTHFTHQQISQAHKNSTNTNHDMFFQARNSSLDIRHVTVTDTFPLGFDRAGNQDQFWEGMLHVFPAHVDELVDQLMNSSKPRPTCLILDTFYNWGSKIANKFNLVHISFWTQSALSFTLFYHWELLKKNGHFGSPDNRTDVIDYIPGVQEIKPADLISYLQMSDTTTVAHRTCFTAFEDVRKADFILANTIQEFETDTISSIRFHQPFFYPIGPVFLTKSEQQASSALWSESDCEQWLSTKPKGSVLYASFGSYARVTRHDIAEIAYGLMQSEVNFIWVIRDDIVGAHETDFLPTEFINGIKLKDQGLLVSWCSQTEVLSNAAIGGFLTHCGWNSILESVWCEVPLLCFPIMTDQPSNRKLVVDDWRIGVNLSAAEEVSREEVSMKVRNLISGELGNELRVQIQKYKKLMENGIMEGGSSHSNWNKFIHDLQIFKK
B4: RrUGT13: R. rosea UGT with regio-specific T4GT activity (protein, listed as Rhodiola rosea)
chain: MAEISLIFIPFPVISHLTPTIEIAKILLSRDHRLSITFLVIDIPQRDASLASLTTSIISDRLHFLDVVLPPNQHSQSSKPSGIAAIESAKPAVKKTISDLVVRSQSAASGPRIAGFVLDMFCTAMIDIATEFNLPSYIYYTCGSSFLSIVLHVQKLCDDDALDIADFKNSSVEFSLPEFSNLIPARLLPSMALDKDFSASFVGKARAFRKTKGILVNSLVELEPHAIESMKLDRSVPPIYSVGPVLNMNSNTAFIRQEQEKEIMEWLDQQPPASVVFLCFGSRGAFKPDQVKEIARGLESSGCRFLWALRQPSSSNVRFSPPTDYEDFSEVLPEGFLQRTYGVGKVIGWAPQTAVLDHPSVGGFVSHCGWNSILESLWFGVPIATWPLYAEQQMNAFEVVKEMKIGVEISLDYRLEMGGKQAEGSGIISGEQIERGIRDVMQEDSEVRKKVKLMMEKSREAVVEGGSSYNYIQNFISDLRTNIGL
B5: RrUGT2: R. rosea UGT with regio-specific T4GT activity, icariside D2-producing (protein, listed as Rhodiola rosea)
chain: MGSDSRPLRVFFFPFMAHGHLIPMVDIARLFSSQGVHSTIITTPLNANYISKTTSLSIKTIPFPAAEVGLPDGCENIDMLPSPDLFFKFFQAANLLQAPFENLLELERPDCLISDIFFPWSVDSAEKFNIPRLVFHGTSFFAMCAMESLKTHKPYKSVSTDSEPFLIPNLPDEIKMTKSQFTVDAWEDTEKGLGKLLADARASGLRSFGMIVNSFHELEPAYADYYKNVLNMKAWCVGPVSLYNRNDDEKIARGKKSAIDDHECLKWLEGKQPDSVVYVCFGSSASFPDEQLRDIALGLEESGVNFIWVIRRSSESGSEDYLPEGFEDRVKDRGLVIRGWAPQVLILDHPSVGGFVTHCGWNSALEGISAGLPMVTWPLFAEQFFNQKLITDVLKVGVEVGVQKWSRNGEDRVTKEKVEKAVRAVMVGEDAEERRGRARQLGKLAKKAVAKDGSSYIDLHNLLDELKLRRETLS
B6: RrUGT29: R. rosea UGT with regio-specific T8GT activity, salidroside-producing (protein, listed as Rhodiola rosea)
chain: MGSLGKKIQQKPHAICTPYPAQGHINPMLKLAKLLHHSGFYITFVHTTYNYNRLLKTHGSDSLSGLPDFQFETIPDGLPPSDAADVTQDIPALCKSTTETCLVPFKELLAKLHNKSMASPEEVPPVTCIVSDGCMSFTVDAAEEAGVPNVLLWTTSACGFLGYANYPKLIDRGIIPLKDESYFTNGYLDKTVDGIPGMKGIRLRDFPNFVCTTNPDEFMVKYAIQEITRAARADAVILNTFDALEHDFLDGLSNIYPKVLPIGPLQLPLNQIPESSPLHSICSSLWKDEPQCITWLNSQKPKSVVYVNYGSITVMTPQQMVEFAWGLANTKYPFLWIIRPDLVAGETAVLPPDFLEVTKGRSCLASWCPQEQVLSHTSIGGFLTHCGWNSMLESVVEGVPMVCWPFFAEQQTNCWAARTKWGIGMEIDNDVKRDKVQKMVTELMEGEKGKEMKRKGGEWKKLGAEAAGPNGSATLNFSRLINDVLLSKKKIVVTT

The molecules below were run on tyrosol (assay: In vivo tyrosol glycosylation assay in yeast expressing Rr4HPAAS). Settings: UGT on 2-micron TEF-promoter plasmid in S. cerevisiae BY4743 expressing Rr4HPAAS.
Format: cell-based
Excerpt: To facilitate functional assessment of a large number of UGT candidates, an in vivo tyrosol glycosylation assay in the yeast S. cerevisiae was devised. Initial iterations of the tyrosol-producing yeast strains were generated by transforming wild type S. cerevisiae BY4743 with separate 2-micron TEF-promoter expression plasmids containing Rr4HPAAS and Rr4HPAR1, respectively. It was later observed that yeast contains endogenous ADH activity sufficient to reduce 4-hydroxyphenylacetaladehyde produced by Rr4HPAAS to tyrosol. Therefore, the Rr4HPAR1-containing plasmid was omitted in the final tyrosol-producing strain (FIG. 18). Each of the 34 R. rosea UGT candidate genes, carried on the yeast 2-micron TEF-promoter expression plasmids, was transformed into the background strain expressing Rr4HPAAS. After auxotrophic selection, colonies were cultured, harvested and subjected to metabolic profiling by LC-HRAM-MS. […] The UGTs that contain T4GT activity appear to be phylogenetically diverse with representative enzymes falling into the D, G, E and K groups, while all of identified T8GTs cluster within the G group (FIG. 4A).
Crown tissue and root tissue of a three-month-old R. rosea plant was harvested and stored at −80° C. before subsequent metabolomic analysis. Various transgene-carrying S. cerevisiae BY4743 strains and transiently transformed N. benthamiana plants were generated to test the activity of candidate genes involved in the tyrosol glycoside biosynthesis. 3 mL of saturated S. cerevisiae culture was used to inoculate 50 mL of synthetic minimal media (SD) in a shake flask. After 24 hours of shaking at 30° C., the culture was pelleted by centrifugation, washed with water, and stored at −80° C. before further processing. N. benthamiana leaf tissue was harvested 5 days after Agrobacterium infiltration and was stored at −80° C. before further processing. Frozen yeast or plant tissue was disrupted with a TissueLyser (Qiagen) using acid-washed metal beads in 50% methanol (500 μL per 100 mg fresh weight). The extracts were then analyzed by LC-HRAM-MS. Metabolite profiling was conducted on a QExactive benchtop orbitrap mass spectrometer equipped with an Ion Max source and a HESI II probe, which was coupled to a Dionex UltiMate 3000 UPLC system (Thermo Fisher Scientific). 2 μL of each sample was injected onto a 150×2.1 mm ZIC-pHILIC column (5 μm particle size, EMD Millipore). Solvent A was 20 mM ammonium carbonate, 0.1% ammonium hydroxide; solvent B was acetonitrile. The column oven and autosampler tray were held at 25° C. and 4° C., respectively. The chromatographic gradient was run at a flow rate of 0.15 mL/min as follows: 0-20 min, linear gradient from 80% to 20% solvent B; 20-20.5 min, linear gradient from 20% to 80% solvent B; 20.5-28 min, hold at 80% solvent B. The mass spectrometer was operated in full-scan, polarity-switching mode with the spray voltage set to 3.0 kV, the heated capillary held at 275° C., and the HESI probe held at 350° C. The sheath gas flow was set to 40 units, the auxiliary gas flow was set to 15 units, and the sweep gas flow was set to 1 unit. The MS data acquisition was performed in a range of 70-1000 m/z, with the resolution set at 70,000, the AGC target at 10 e6, and the maximum injection time at 20 msec. The raw data was converted to mzML format using MSConvert (Chambers et al., 2012), and analyzed using MetaboAnalyst (Xia and Wishart, 2016) and MZmine2 (Pluskal et al., 2010).
For B1, the “tyrosol glycosylation activity (T8GT / T4GT)” value was “both T8GT and T4GT activities”. In the case of B2, the “tyrosol glycosylation activity (T8GT / T4GT)” value is reported as “regio-specific T8GT activity”. B3 was tested, and the “tyrosol glycosylation activity (T8GT / T4GT)” value was “regio-specific T4GT activity”. For B4, the “tyrosol glycosylation activity (T8GT / T4GT)” value was “regio-specific T4GT activity”. In the case of B5, the “tyrosol glycosylation activity (T8GT / T4GT)” value is reported as “regio-specific T4GT activity”. B6 was tested, and the “tyrosol glycosylation activity (T8GT / T4GT)” value was “regio-specific T8GT activity”.
